For one test, the target named is Galectin-3 (Homo sapiens, UniProt P17931). Description: SPR (BiacoreT200) binding affinity. To be noted: 25° C., read-out: hGal-3 KD. The procedure: GAL3-binding antibodies were evaluated for their binding affinity by SPR. Kinetics experiments were performed on BiacoreT200 at 25° C. in high performance mode. Ligand proteins, purified antibodies were captured onto a CM5 chip coupled with anti-human Fc or anti-mouse Fc antibody, three antibodies at a time onto flow cell #2, 3, and 4, respectively, while flow cell #1 was used as reference. The analyte Galectin-3 in HBS-EP buffer was injected over all four flow cells at concentrations of 100, 50, 25, 12.5, 6.25, 3.125 and 0 nM at a flow rate of 30 μL/min. The complex was allowed to associate and dissociate for 240 and 300 seconds, respectively. The surfaces were regenerated with a 30 second injection of 10 mM Glycine pH 1.7 (flow rate 30 μL/min). The data were fit to a simple 1:1 interaction model using the global data analysis option available within BiacoreT200 Evaluation software V2.0. The affinity of Gal3 monoclonal antibodies was confirmed to be […] 30 nM for all antibodies studied (Table 24.1). Antibodies with affinity less than 2E-7 were selected for further characterization.
Chain of Galectin-3 (P17931 whole entry): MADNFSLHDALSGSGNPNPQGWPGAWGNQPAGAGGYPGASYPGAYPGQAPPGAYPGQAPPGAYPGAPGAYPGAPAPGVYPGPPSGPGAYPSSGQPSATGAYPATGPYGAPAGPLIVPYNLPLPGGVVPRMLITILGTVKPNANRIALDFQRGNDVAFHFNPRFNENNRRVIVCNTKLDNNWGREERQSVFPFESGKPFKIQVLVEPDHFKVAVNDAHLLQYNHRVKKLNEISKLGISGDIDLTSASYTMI
Background: SPR reads the build-up and loss of mass on a sensor chip optically.

The subject of the next test is hGal3 peptide. Description: Gal3 peptide library ELISA (Example 25). It counts as binding, human. The following applies: for Epitope Mapping: hGal3 peptide No. bound; for Gal3 peptide bound: peptide array ELISA. The procedure: To identify the epitopes to which Gal3 antibodies with and without Gal3-TIM3 blocking activity bound, a library of 20 amino acid peptides representing portions of Gal3, summarized in Table 24.1, was produced and the ability to bind Gal3 antibodies was evaluated by ELISA.
At least 2 μg/ml of hGal3 peptide in 50 μl of PBS or 0.1 μg/ml of full-length human Gal3 protein (GenScript) and human Galectin-3 protein (Acro Biosystems, GA3-H5129) were diluted in PBS (Corning, 21-030-CM) to concentrations of at least 2 μg/ml or 0.1 μg/ml, respectively, and added to the wells of a 96-well ELISA plate (Thermo Fisher, 44-2404-21). After incubating the plate at 4° C. overnight, the plate was washed three times with PBST (PBS with 0.05% Tween 20 [VWR, 0777]). The plate was then blocked for an hour with 2% BSA (EMD Millipore, 126609) in PBST at room temperature with gentle rocking. Thereafter, the 2% BSA in PBST was discarded and human Galectin-3 hybridoma supernatants or antibodies were diluted in 2% BSA in PBST to concentrations of at least 0.1 μg/ml and added to the wells. The plate was incubated for an hour at room temperature with gentle rocking and then washed three times with PBST. Afterwards, Goat Anti-Mouse IgG-HRP (Jackson ImmunoResearch, 115-036-1461) or Goat Anti-Rat IgG HRP (abcam, ab205720) diluted in 2% BSA in PBST (1:4000) were added to the wells. The plate was incubated for 30 minutes to 1 hour at room temperature with gentle rocking and then washed three times with PB ST. TMB substrate (Thermo Scientific, 34029) was then added to each well. The reaction was stopped with 1M HCl (JT Baker, 5620-02) and read using a plate reader (Molecular Devices) at absorbance of 450 nm.
A general note: An ELISA detects its analyte on a solid surface through an enzyme-linked reagent.

The target in test [1] is T1, association of GAL3 and TIM3 (Homo sapiens, UniProt P17931).
T1 construct: full-length human Galectin-3 protein (Acro Biosystems, GA3-H5129); linker-spaced 6-histidine tag; purchased Acro Biosystems GA3-H5129 (Gal3); TM3-H5229 (TIM-3)
T1 sequence (P17931 2-250 limits assumed): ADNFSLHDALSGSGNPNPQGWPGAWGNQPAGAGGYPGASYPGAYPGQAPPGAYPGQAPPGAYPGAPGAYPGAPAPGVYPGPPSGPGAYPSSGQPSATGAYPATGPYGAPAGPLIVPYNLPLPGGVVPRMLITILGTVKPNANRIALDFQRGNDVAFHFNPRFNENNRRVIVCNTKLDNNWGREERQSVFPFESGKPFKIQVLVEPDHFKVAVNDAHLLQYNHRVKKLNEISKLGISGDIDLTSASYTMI
Briefly: GAL3-TIM3 blocking ELISA (Examples 24, 27). The following applies: 3 ug/mL antibody. It counts as binding. The procedure: Positively scoring wells were evaluated for the ability to block association of GAL3 and TIM3. To identify GAL3-targeted antibodies with the ability to block the interaction of GAL3 and TIM3, purified GAL3 and TIM3 proteins were incubated in the presence of GAL3-immunization hybridoma supernatants described above, or without antibody, and protein interaction was evaluated by ELISA. Human Galectin-3 protein (Acro Biosystems, GA3-H5129) was diluted in PBS (Corning, 21-030-CM) to a concentration of 3 μg/ml and added to the wells of a 96-well ELISA plate (Thermo Fisher, 44-2404-21). After incubating the plate at 4° C. overnight, the plate was washed three times with PBST (PBS with 0.05% Tween 20 [VWR, 0777]). The plate was then blocked for an hour with 2% BSA (EMD Millipore, 126609) in PBST at room temperature with gentle rocking. Thereafter, the 2% BSA in PBST was discarded and antibody or inhibitor (3-fold dilutions beginning at 20 μg/ml, 60 μg/ml, or 180 μM) in 2% BSA in PBST was added to the wells. Afterwards, 2 μg/ml of human TIM3 (Aero Biosystems, TM3-H5229) in 2% BSA in PBST was added to the antibody or inhibitor in the wells in a 1:1 ratio. The plate was incubated for an hour at room temperature with gentle rocking. Thereafter, the plate was washed three times with PBST, and 0.3 μg/ml of human TIM3 Biotinylated Antibody (R&D Systems, BAF2365) in 2% BSA in PBST was added to the wells. The plate was incubated for an hour with gentle rocking and then washed three times with PBST. Avidin-HRP (1:2000) was then added to the wells. The plate was incubated at room temperature for an hour with gentle rocking and then washed three times with PBST. TMB substrate (Thermo Scientific, 34029) was then added to each well. The reaction was stopped with 1M HCl (JT Baker, 5620-02) and read using a plate reader (Molecular Devices) at absorbance of 450 nm.

The next test concerns the target human Gal3-His (Homo sapiens, UniProt P17931). Description: Antibody binning by biolayer interferometry (Gator). It counts as binding. The following applies: antibody competition. The procedure:
To determine whether Gal3-binding antibodies with Gal3-TIM3 blocking activity bind to the same or overlapping regions of the Gal3 molecule, antibody binning assays were performed to assess the ability of antibodies to simultaneously bind Gal3. Amine-reactive probes were loaded onto a Gator biosensor (Probe Life, Palo Alto, Calif.), equilibrated in dH20 for 60 seconds, dipped into 100 μl EDC 0.2M/NHS 0.05M activation buffer for 30 seconds, then dipped into a solution of […] human Gal3-His in 10 mM NaOAc buffer, pH 5 until binding was saturated, and quenched in 1 M ethanolamine pH 8.5 for 300 seconds. Following Gal3-His loading, tips were dipped in 20 μg/mL saturating antibody, then successively dipped into 5 μg/mL competing antibody.
In general terms: Biolayer interferometry detects binding as a change in optical thickness at a sensor tip.

Entries after “also recorded” stand apart in the source; their conditions may differ.

Chain of human Gal3-His (P17931 whole entry): as the sequence (P17931 whole entry) above

B1: 24D12.2H9: murine anti-Gal3 antibody (antibody, V domains shown)
VH: QVQLKQSGPGLVQPSQSLSITCTVSGFSLTSYGVHWVRQAPGKGLEWLGVIWSGGSTDYNAAFMSRLSISKDNSKSQVFFKMNSLQADDTAIYYCAKSPDGYDVAWFGYWGQGTLVTVSA
VL: DIVMTQSHKFMSTSVGDRVSITCKASQDVRTAVAWYQQKPGQSPKLLIYWASTRHTGVPDRFTGSGSGTDFTLTLSNVQSEDLADYFCQQYSSYPWTFGGGTKLEIK
modifications: VH of 24D12.2H9; VL of 24D12.2H9
notes: murine anti-Gal3 antibody
The term Kd denotes the equilibrium constant for the complex coming apart. For the molecule B1, the Kd with Galectin-3 was 4.13 nM. In the test with hGal3 peptide, the “Epitope Mapping” value is “Non-linear”. For the same molecule, the “GAL3-TIM3 Blocking @ 3 ug/mL” value in test [1] amounted to 0%. Also, the Bin with human Gal3-His was found to be 11.

B2: 20D11.2C6: murine anti-Gal3 antibody (antibody, V domains shown)
VH: EVQLQQSGPELVKPGASVKISCKASGYTFTDFYINWVKQSHGKSLEWIGDINPKNGGINYNPKFKIKATLTVDKSSSTSYMDLRGLTSEDSAVYYCTSGYGFPYWGQGTLVTVSA
VL: DIQMNQSPSSLSASLGDTITITCRASQNIYIWLSWYQQKPGNIPKLLIYKASNLHTGVPSRFSGSGSGTDFTLTISTLQPEDIATYFCLQGQSYPLTFGAGTKLEMK
In the case of B2, in the test with Galectin-3, the dissociation constant (Kd) was 27.8 nM. In the test with hGal3 peptide, the Gal3 peptide bound result is listed as “peptide 1; also recorded: peptide 7”. In addition, in test [1], the “GAL3-TIM3 Blocking @ 3 ug/mL” value was found to be 40%. In addition, the Bin with human Gal3-His was 5.

B3: 4A11.2B5: murine anti-Gal3 antibody, origin of IMT006-1 and IMT006-5 (antibody, V domains shown)
VH: QVQLQQSGPELVKPGASVKISCKASGYSFTNYYIHWVKQRPGQGLEWIGWIYPGSGNTNYNEKFKGKATLTADTSSSTTNMQLSSLTSEDSAVYYCSTAPGGFDVWGSGTTVTVSS
VL: DIVMTQAAFSNPVTLGTSASISCRSSKSLLHSDGITYLYWYLQRPGQSPQLLIYRMSNLASGVPDRFSGSGSGTDFTLRISRVEAEDVGVYYCAQMLEFPLTFGAGTKLELK
For B3, the Kd with Galectin-3 worked out at 5.22 nM. Further, in the test on hGal3 peptide, the “Epitope Mapping” value stood at 6 and the Gal3 peptide bound result is reported as “peptide 6”. For the same molecule, the “GAL3-TIM3 Blocking @ 3 ug/mL” value in test [1] amounted to 48%. The same molecule displayed a Bin with human Gal3-His of 3.

B4: 19B5.2E6: murine anti-Gal3 antibody (antibody, V domains shown)
VH: QIQLVQSGPELKKPGETVKISCKASGYTFTTYAMSWVKQAPGKGLKWMGWINTYSGVPTYADDLKGRFAFSLETSASTAYLQINNLKNEDTATYFCARGPYAMDYWGQGTSVTVSS
VL: DIQMTQTTSSLSASLGDRVTISCSASQGINNYLNWYQQKPDGTVKLLIYYASSLHSGVPSRFSGSGSGTDYSLTISNLEPEDIATYYCQQYSQVPYTFGSGTKLEIK
For the molecule B4, in the test with Galectin-3, the dissociation constant Kd was under 1 nM. Moreover, in the test with hGal3 peptide, the “Epitope Mapping” value is 1,7 and the Gal3 peptide bound result is on record as “peptide 1; also recorded: peptide 7”. Besides, the “GAL3-TIM3 Blocking @ 3 ug/mL” value in test [1] is reported as 61%. Besides, the Bin with human Gal3-His was found to be 4.

B5: 23H9.2E4: murine anti-Gal3 antibody (antibody, V domains shown)
VH: QIQLVQSGPELKKPGETVKISCKASGYTFTTYAMSWVKQAPGKGLKWMGWINTYSGVPTYADDLKGRFAFSLETSASTAYLQINNLKNEDTATYFCARGPYAMDYWGQGTSVTVSS
VL: DIQMTQTTSSLSASLGDRVTISCSASQGINNYLNWYQQKPDGTVKLLIYYASSLHSGVPSRFSGSGSGTDYSLTISNLEPEDIATYYCQQYSQVPYTFGSGTKLEIK
On to B5, for which the Kd with Galectin-3 is 4.26 nM. In addition, in the test with hGal3 peptide, the “Epitope Mapping” value is 1,7 and the Gal3 peptide bound entry is on record as “peptide 1; also recorded: peptide 7”. For the same molecule, the “GAL3-TIM3 Blocking @ 3 ug/mL” value in test [1] came to 80%. In the test with human Gal3-His, this molecule yielded a Bin of 4.

B6: 846.1F5: murine anti-Gal3 antibody (antibody, V domains shown)
VH: QIQLVQSGPELKKPGETVKISCKASGYTFTNYGMNWVKQAPGKGLKWMGWINTYTGEPSYADDFKGRFAFSLETSASTAYLQINNLKNEDMATYFCARWGGYDGDYYAMDYWGQGTSVTVSS
VL: NIMMTQSPSSLAVSAGEKVTMSCKSSQSVLYSSNQKNYLAWYQQKPGQSPKLLIYWASTRESGVPDRFTGSGSGTDFTLTISSVQPEDLAVYYCHQYLSSLTFGAGTKLELK
For the molecule B6, the Kd with Galectin-3 is 2.73 nM. Also, in the test with hGal3 peptide, the “Epitope Mapping” value was found to be 6 and the Gal3 peptide bound entry was “peptide 6”. For the same molecule, the “GAL3-TIM3 Blocking @ 3 ug/mL” value in test [1] turned out to be 90%. In addition, the Bin in the test with human Gal3-His is 3.

B7: 15F10.2D6: murine anti-Gal3 antibody (antibody, V domains shown)
VH: EVQLVESGGGLVKPGGSLKLSCAASGFAFSSYAMSWVRQTPEKRLEWVATISDGGVYTYYTDHVKGRFTISRDNAEDNLYLQMSHLKSEDTAMYYCVRDGGYWGQGTTLTVSS
VL: DVLMTQTPLSLPVSLGDQASISCRSSQSIVHNNGNTYLEWYLQKPGQSPKLLIYKVSNRFSGVPDRFSGSGSGTDFTLKISRVEAEDLGVYYCFQGSHVPLTFGGGTKLELK
With B7, the equilibrium dissociation constant (Kd) in the test with Galectin-3 stood at 2.06 nM. In the test on hGal3 peptide, the “Epitope Mapping” value is recorded as 2,7 and the Gal3 peptide bound result is reported as “peptide 7”. In addition, the “GAL3-TIM3 Blocking @ 3 ug/mL” value in test [1] was found to be 19%. In the test with human Gal3-His, this molecule yielded a Bin of 8.

B8: 12G5.D7: murine anti-Gal3 antibody (antibody, V domains shown)
VH: QVQLKQSGAELVRPGASVKLSCKASGYTFTDYYINWVKQRPGQGLEWIARIYPGTGNTDYNEKFKGRATLTAEKSSSTAYMQLSSLTSEDSAVYFCARFAYYYGSGGYFDYWGHGTTLTVSS
VL: DILMTQSPSSMSVSLGDTVSITCHASQGINSNMGWLQQKPGKSFKGLIYHATNLEDGVPSRFSGSGSGADYSLTISSLESEDFADYYCVQYAQFPPTFGSGTKLEIK
modifications: VH of 12G5.D7; VL of 12G5.D7
notes: murine anti-Gal3 antibody
As for B8, in the test with Galectin-3, the dissociation constant Kd was 1.9 nM. The “Epitope Mapping” value with hGal3 peptide is listed as “Non-linear”. In addition, the “GAL3-TIM3 Blocking @ 3 ug/mL” value in test [1] was 12%. In addition, the Bin with human Gal3-His turned out to be 10.

For the origin of these results see patent US20220380473A1, “ANTI-GAL3 ANTIBODIES AND USES THEREOF” (TrueBinding, Inc., priority 2019, published 2022).
